Reference: US20240336657A1, “G-ALPHA-S PEPTIDE INHIBITORS AND USES THEREOF” (The Regents of the University of California, priority 2021, published 2024)
Blank lines part the entries; values can stand above or below the binder they belong to. Positions of bridges follow the written chain, without caps; N, C: chain ends. Non-standard residues stand in square brackets, D forms with d.

Biological target: T1, Biotinylated His/Avi-tagged Gαs used in the RaPID selection, GppNHp-bound (human, UniProt P63092 7-394, biotin on the Avi tag (BirA co-expressed))
T1 construct: Immobilized on streptavidin magnetic beads
Assay: RaPID comparison selection: peptide-mRNA-cDNA complexes on Gαs-immobilized streptavidin beads, qPCR and sequencing

T1 sequence (P63092 other isoform, or with tags, fused parts or gaps limits assumed): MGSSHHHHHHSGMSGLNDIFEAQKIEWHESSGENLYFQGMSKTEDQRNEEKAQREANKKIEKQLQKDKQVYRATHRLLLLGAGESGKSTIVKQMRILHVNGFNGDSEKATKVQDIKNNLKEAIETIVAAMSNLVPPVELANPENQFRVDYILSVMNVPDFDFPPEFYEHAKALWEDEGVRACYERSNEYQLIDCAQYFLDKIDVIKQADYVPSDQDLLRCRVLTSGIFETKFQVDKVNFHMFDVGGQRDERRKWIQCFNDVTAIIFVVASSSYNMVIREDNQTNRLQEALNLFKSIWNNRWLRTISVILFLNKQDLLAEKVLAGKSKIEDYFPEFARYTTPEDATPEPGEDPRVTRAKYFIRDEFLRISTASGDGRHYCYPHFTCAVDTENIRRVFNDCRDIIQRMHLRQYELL

B1: GN3 (peptide)
peptide: {CH2CO}-[dY]NWSNQFDWFLDLCG-NH2
modifications: thioether N-14
SMILES: CC(C)C[C@@H]1NC(=O)[C@H](CC(=O)O)NC(=O)[C@H](CC(C)C)NC(=O)[C@H](Cc2ccccc2)NC(=O)[C@H](Cc2c[nH]c3ccccc23)NC(=O)[C@H](CC(=O)O)NC(=O)[C@H](Cc2ccccc2)NC(=O)[C@H](CCC(N)=O)NC(=O)[C@H](CC(N)=O)NC(=O)[C@H](CO)NC(=O)[C@H](Cc2c[nH]c3ccccc23)NC(=O)[C@H](CC(N)=O)NC(=O)[C@@H](Cc2ccc(O)cc2)NC(=O)CSC[C@@H](C(=O)NCC(N)=O)NC1=O
- fold selectivity for GppNHp-bound over GDP-bound Gαs: > 100 fold

B2: GN7 (peptide)
peptide: {CH2CO}-[dY]SWPNQFDWFIELCG-NH2
modifications: thioether N-14
SMILES: CC[C@H](C)[C@@H]1NC(=O)[C@H](Cc2ccccc2)NC(=O)[C@H](Cc2c[nH]c3ccccc23)NC(=O)[C@H](CC(=O)O)NC(=O)[C@H](Cc2ccccc2)NC(=O)[C@H](CCC(N)=O)NC(=O)[C@H](CC(N)=O)NC(=O)[C@@H]2CCCN2C(=O)[C@H](Cc2c[nH]c3ccccc23)NC(=O)[C@H](CO)NC(=O)[C@@H](Cc2ccc(O)cc2)NC(=O)CSC[C@@H](C(=O)NCC(N)=O)NC(=O)[C@H](CC(C)C)NC(=O)[C@H](CCC(=O)O)NC1=O
- fold selectivity for GppNHp-bound over GDP-bound Gαs: > 100 fold

B3: GN8 (peptide)
peptide: {CH2CO}-[dY]QYTYPYLVIDWTCG-NH2
modifications: thioether N-14
SMILES: CC[C@H](C)[C@@H]1NC(=O)[C@H](C(C)C)NC(=O)[C@H](CC(C)C)NC(=O)[C@H](Cc2ccc(O)cc2)NC(=O)[C@@H]2CCCN2C(=O)[C@H](Cc2ccc(O)cc2)NC(=O)[C@H]([C@@H](C)O)NC(=O)[C@H](Cc2ccc(O)cc2)NC(=O)[C@H](CCC(N)=O)NC(=O)[C@@H](Cc2ccc(O)cc2)NC(=O)CSC[C@@H](C(=O)NCC(N)=O)NC(=O)[C@H]([C@@H](C)O)NC(=O)[C@H](Cc2c[nH]c3ccccc23)NC(=O)[C@H](CC(=O)O)NC1=O
- fold selectivity for GppNHp-bound over GDP-bound Gαs: > 100 fold

B6: GN1 (peptide)
peptide: {CH2CO}-[dY]QFIEVWPFYLPCG-NH2
modifications: thioether N-13
SMILES: CC[C@H](C)[C@@H]1NC(=O)[C@H](Cc2ccccc2)NC(=O)[C@H](CCC(N)=O)NC(=O)[C@@H](Cc2ccc(O)cc2)NC(=O)CSC[C@@H](C(=O)NCC(N)=O)NC(=O)[C@@H]2CCCN2C(=O)[C@H](CC(C)C)NC(=O)[C@H](Cc2ccc(O)cc2)NC(=O)[C@H](Cc2ccccc2)NC(=O)[C@@H]2CCCN2C(=O)[C@H](Cc2c[nH]c3ccccc23)NC(=O)[C@H](C(C)C)NC(=O)[C@H](CCC(=O)O)NC1=O
notes: the number is its rank in the selection
- fold selectivity for GppNHp-bound over GDP-bound Gαs: > 100 fold

Now from value to binder:

- fold selectivity for GppNHp-bound over GDP-bound Gαs: > 100 fold
B4: GN6 (peptide)
peptide: Ac-[dY]CFYEVWPYYLPCG-NH2
modifications: thioether (positions not given here); also: thioether partner Cys2 or Cys13 not settled

- fold selectivity for GppNHp-bound over GDP-bound Gαs: > 100 fold
B5: GN11 (peptide)
peptide: {CH2CO}-[dY]LTNWGVYWDQYWCG-NH2
modifications: thioether N-14
SMILES: CC(C)C[C@@H]1NC(=O)[C@@H](Cc2ccc(O)cc2)NC(=O)CSC[C@@H](C(=O)NCC(N)=O)NC(=O)[C@H](Cc2c[nH]c3ccccc23)NC(=O)[C@H](Cc2ccc(O)cc2)NC(=O)[C@H](CCC(N)=O)NC(=O)[C@H](CC(=O)O)NC(=O)[C@H](Cc2c[nH]c3ccccc23)NC(=O)[C@H](Cc2ccc(O)cc2)NC(=O)[C@H](C(C)C)NC(=O)CNC(=O)[C@H](Cc2c[nH]c3ccccc23)NC(=O)[C@H](CC(N)=O)NC(=O)[C@H]([C@@H](C)O)NC1=O
